Measurements as given in patent publication US20210171647A1 (WUXI BIOLOGICS SHANGHAI, published 2021).

Columns and labels:
Test in all cases: ELISA, antibody coated, OX40-ECD.His mutant supernatant; relative to silent alanine substitutions;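 note: captured OX40 mutant protein detected with HRP-labelled anti-His antibody, absorbance read-out, scaled to the mean signal of control mutants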
human OX40-ECD.His S118A = molecular target: T1, human OX40-ECD.His S118A (human, UniProt P43489 29-214)
T1 construct: extracellular domain; not shown: C-terminal His-tag
T1 sequence (looked up): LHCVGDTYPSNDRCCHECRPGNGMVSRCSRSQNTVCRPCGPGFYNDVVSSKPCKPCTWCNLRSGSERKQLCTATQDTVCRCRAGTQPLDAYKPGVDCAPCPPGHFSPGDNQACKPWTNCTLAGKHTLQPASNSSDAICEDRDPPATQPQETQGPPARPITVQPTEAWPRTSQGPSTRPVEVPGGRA

human OX40-ECD.His D124A = molecular target: T2, human OX40-ECD.His D124A (human, UniProt P43489 29-214)
T2 construct: extracellular domain; not shown: C-terminal His-tag
T2 sequence (looked up): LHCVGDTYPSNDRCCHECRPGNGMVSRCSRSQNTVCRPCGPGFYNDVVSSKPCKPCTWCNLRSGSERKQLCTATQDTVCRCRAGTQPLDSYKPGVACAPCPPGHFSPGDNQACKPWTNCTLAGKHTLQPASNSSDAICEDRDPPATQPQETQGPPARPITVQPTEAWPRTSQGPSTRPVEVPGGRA

human OX40-ECD.His L155A = molecular target: T3, human OX40-ECD.His L155A (human, UniProt P43489 29-214)
T3 construct: extracellular domain; not shown: C-terminal His-tag
T3 sequence (looked up): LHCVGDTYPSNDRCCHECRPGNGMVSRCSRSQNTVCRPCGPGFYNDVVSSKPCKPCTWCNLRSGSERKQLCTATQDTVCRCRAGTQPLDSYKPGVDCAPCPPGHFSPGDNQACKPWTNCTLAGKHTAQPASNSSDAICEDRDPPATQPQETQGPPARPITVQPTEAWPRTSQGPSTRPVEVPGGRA

human OX40-ECD.His T145A = molecular target: T4, human OX40-ECD.His T145A (human, UniProt P43489 29-214)
T4 construct: extracellular domain; not shown: C-terminal His-tag
T4 sequence (looked up): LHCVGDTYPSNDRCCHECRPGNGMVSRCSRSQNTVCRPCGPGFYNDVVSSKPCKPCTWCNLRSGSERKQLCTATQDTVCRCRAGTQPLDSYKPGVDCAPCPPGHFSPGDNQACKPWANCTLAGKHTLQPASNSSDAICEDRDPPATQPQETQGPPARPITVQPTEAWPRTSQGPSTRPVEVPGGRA

human OX40-ECD.His R58A = molecular target: T5, human OX40-ECD.His R58A (human, UniProt P43489 29-214)
T5 construct: extracellular domain; not shown: C-terminal His-tag
T5 sequence (looked up): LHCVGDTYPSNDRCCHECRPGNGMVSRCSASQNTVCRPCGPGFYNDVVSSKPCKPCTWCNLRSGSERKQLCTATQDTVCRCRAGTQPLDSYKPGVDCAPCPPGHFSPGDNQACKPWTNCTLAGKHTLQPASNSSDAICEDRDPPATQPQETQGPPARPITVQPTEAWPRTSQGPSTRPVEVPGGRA

human OX40-ECD.His S54A = molecular target: T6, human OX40-ECD.His S54A (human, UniProt P43489 29-214)
T6 construct: extracellular domain; not shown: C-terminal His-tag
T6 sequence (looked up): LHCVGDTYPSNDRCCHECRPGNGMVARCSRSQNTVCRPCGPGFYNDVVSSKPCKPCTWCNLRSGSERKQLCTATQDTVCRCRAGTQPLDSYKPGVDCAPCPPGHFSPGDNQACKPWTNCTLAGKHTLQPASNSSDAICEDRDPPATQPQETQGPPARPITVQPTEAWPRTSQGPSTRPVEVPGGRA

human OX40-ECD.His E167A = molecular target: T7, human OX40-ECD.His E167A (human, UniProt P43489 29-214)
T7 construct: extracellular domain; not shown: C-terminal His-tag
T7 sequence (looked up): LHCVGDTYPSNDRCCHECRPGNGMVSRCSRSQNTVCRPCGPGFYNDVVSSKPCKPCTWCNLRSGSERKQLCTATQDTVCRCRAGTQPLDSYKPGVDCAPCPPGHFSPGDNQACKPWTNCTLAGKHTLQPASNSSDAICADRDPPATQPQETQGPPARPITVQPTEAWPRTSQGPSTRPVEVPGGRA

human OX40-ECD.His H132A = molecular target: T8, human OX40-ECD.His H132A (human, UniProt P43489 29-214)
T8 construct: extracellular domain; not shown: C-terminal His-tag
T8 sequence (looked up): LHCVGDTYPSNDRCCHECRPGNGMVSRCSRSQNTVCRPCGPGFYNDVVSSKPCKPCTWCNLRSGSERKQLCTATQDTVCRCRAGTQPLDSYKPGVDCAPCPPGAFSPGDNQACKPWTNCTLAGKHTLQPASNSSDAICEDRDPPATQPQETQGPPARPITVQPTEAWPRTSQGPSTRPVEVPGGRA

human OX40-ECD.His N88A = molecular target: T9, human OX40-ECD.His N88A (human, UniProt P43489 29-214)
T9 construct: extracellular domain; not shown: C-terminal His-tag
T9 sequence (looked up): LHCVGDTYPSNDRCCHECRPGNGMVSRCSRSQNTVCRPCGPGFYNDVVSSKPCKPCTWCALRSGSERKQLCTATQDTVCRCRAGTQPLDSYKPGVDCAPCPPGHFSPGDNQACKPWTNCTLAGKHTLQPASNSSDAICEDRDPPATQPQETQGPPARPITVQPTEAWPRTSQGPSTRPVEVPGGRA

human OX40-ECD.His Y36A = molecular target: T10, human OX40-ECD.His Y36A (human, UniProt P43489 29-214)
T10 construct: extracellular domain; not shown: C-terminal His-tag
T10 sequence (looked up): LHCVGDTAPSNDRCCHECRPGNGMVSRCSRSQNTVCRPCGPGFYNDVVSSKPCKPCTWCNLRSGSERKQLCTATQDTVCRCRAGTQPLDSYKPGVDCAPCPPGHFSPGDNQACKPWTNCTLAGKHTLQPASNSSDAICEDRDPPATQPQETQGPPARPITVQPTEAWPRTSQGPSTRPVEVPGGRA

Fold Change (human OX40-ECD.His S118A): 0.969
Fold Change (human OX40-ECD.His D124A): 0.989
Fold Change (human OX40-ECD.His L155A): 0.959
Fold Change (human OX40-ECD.His T145A): 0.675
Fold Change (human OX40-ECD.His R58A): 1
Fold Change (human OX40-ECD.His S54A): 0.993
Fold Change (human OX40-ECD.His E167A): 0.998
Fold Change (human OX40-ECD.His H132A): 0.826
Fold Change (human OX40-ECD.His N88A): 0.429
Fold Change (human OX40-ECD.His Y36A): 1
B1: 1.134.9-u1-IgG1L (antibody, V domains shown)
VH: QVQLQESGPGLVKPSGTLSLTCAVSGGSISSYNWWSWVRQPPGKGLEWIGEIYHGGNTNYNPSLKSRVTMSVDNSKNQFSLKLSSVTAADTAVYYCARAPGDWGGSPYFDFWGQGTLVTVSS
VL: SSELTQDPAVSVALGQTVRITCQGDNLRTYYASWYQQKPGQAPILLIYGRNKRPSGIPDRFSGSSSGNTASLTITGAQAEDEAAYYCNSRDSSGNPVVFGGGTKLTVL
notes: fully human IgG1, lambda
